Laboratory results: the DeepSol protein solubility set

Test: soluble on expression in E. coli; label from the status in PepcDB or PDB records

Sequence	soluble on expression in E. coli
MLSEGTHLRPYETLGAHADTMDGVTGTRFSVWAPNARRVSVVGQFNYWDGRRHPMRLRKESGIWELFIPGAHNGQLYKYEMIDANGNLRLKSDPYAFEAQMRPETASLICGLPEKVVQTEERKKANQFDAPISIYEVHLGSWRRHTDNNFWLSYRELADQLVPYAKWMGFTHLELLPINEHPFDGSWGYQPTGLYAPTRRFGTRDDFRYFIDAAHAAGLNVILDWVPGHFPTDDFALAEFDGTNLYEHSDPREGYHQDWNTLIYNYGRREVSNFLVGNALYWIERFGIDALRVDAVASMIYRDYSRKEGEWIPNEFGGRENLEAIEFLRNTNRILGEQVSGAVTMAEESTDFPGVSRPQDMGGLGFWYKWNLGWMHDTLDYMKLDPVYRQYHHDKLTFGILYNYTENFVLPLSHDEVVHGKKSILDRMPGDAWQKFANLRAYYGWMWAFPGKKLLFMGNEFAQGREWNHDASLDWHLLEGGDNWHHGVQRLVRDLNLTYRHHKAMHELDFDPYGFEWLVVDDKERSVLIFVRRDKEGNEIIVASNFTPVPRHDYRFGINQPGKWREILNTDSMHYHGSNAGNGGTVHSDEIASHGRQHSLSLTLPPLATIWLVREAE	soluble
MVSTHSSQYITDFTPVPAEPGKSPLALLAKTCETIGLPEGSSKKNGASSSSSPQGKKDEKNHILHHQHHQQQQQSKQKSSPRSTPQSKEPTLTFPGLPKPSFPMGMPGMMQGFPFFNPMMTAYGCFPGAFPMSQGFMGAQRLPCPFAMMRQPCANPACVQCPSSSSNAAKNGQMTAEMMSQFAAHPLFSMYAGMMPGVPTSSYQALLAASAAASTSAGPTDYSNVASTSKASPQPKPTAQKSQKSAKFPCNWVDSDVPCGKVFDEENELASHVKKMHAPSPSSSASSEQSTSTGKASRSSTTTPHRFNPYGKPVAPAPPTMQQMGMNMAMNPLVLPFSLQAMYSNRLMSTVAHQ	not soluble
VRPLNCIVAVSQNMGIGKNGDLPWPPLRNEFKYFQRMTTTSSVEGKQNLVIMGRKTWFSIPEKNRPLKDRINIVLSRELKEPPRGAHFLAKSLDDALRLIEQPELASKVDMVWIVGGSSVYQEAMNQPGHLRLFVTRIMQEFESDTFFPEIDLGKYKLLPEYPGVLSEVQEEKGIKYKFEVYEKKD	soluble
MGSDKIHHHHHHVSQLSPWQHYQQDLKRDDFSHDLAQEQAVTALQRVYEELIAATKPASGIAALLKAVTGKNKRASVQGLYLWGGVGRGKTYLMDTFFDALPTEDKLRAHFHRFMHQLHHDLGELKGVQDPLLTIAKKMAKQYQVICFDEFFVSDITDAMLLGTLFQALFKEGVVLVATSNIIPDELYKNGLQRARFLPAIALINQHCQILNVDSGIDYRLRTLEQAEIYHHPLDAQADVNLLQYFKQLAPESEVFTHALDIDGRKIAIRQQSQGVLLVDFRALCDGPRSQRDYMEIARLYHTVLLSGLVQMGAQQTGDDIARRFLAVVDEFYERNVKLIISAQVSLEQIYTQGQLDFEFRRCRSRLIEMQSHDYLALEHLP	not soluble
MPCSFAPGFLALTVAIHPGTTAQPSQQSPRAFPFFRPVLAQLMKHRVAQESTRRWLDRIIQIIKYAYCQKLRRHFCQATLWKMIQLIVNGQSQLVPSPDSGTDSGTTNDARLNIRQLLEHMGLQGKRIAVERNGEIVPRSQFDQPMLASGDKLEIVVAVGGGLEHHHHHH	not soluble
MIQKTISETSPPPMFSDEEILTEDEIEEYLDNLKSKLPSFVIILLKNNLRGKRVTKKQLDKIVERITEVLSKGRRDDKTEELNKKLQTLEQKLDAIMKLTTMAVSTKTSEEIEKIKTNEKIEIENAPIKIKSEEKPEKPVEIEVSKKKETMDTGKKTETEEKVKEIEVPKPVEKTHEKVEETKTKGEIKKEVKKEVKLKKYELPKESPMGGSFMTPIEEEKEYRLNDIPEDAVSMTLVFKWLEFLISRGGMTYLPDILDYYNKIGWISNRVILKLLRFAKNMKITFDEEELRPRDKLSPSDHIVSLLYIEKLAGRPIDSEILEMLEIEIRRIKKWAIELQSI	not soluble
MAHHHHHHMAKNDIWTPLESNPDSLYLYSCKLGQSKLKFVDIYGFNNDLLDMIPQPVQAVIFLYPVNDNIVSENNTNDKHNLKENFDNVWFIKQVKIITLCNMNNILPILYVCFNSIELKNNKSIENLHHEFCGQVENRDDILDVDTHFIVFVQIEGKIIELDGRKDHPTVHCFTNGDNFLYDTGKIIQDKFIEKCKDDLRFSALAVIPNDNFDII	soluble
